Experimental findings from patent publication US20230257470A1 (published 2023) are described below.

Residue numbers refer to the chain shown, from its start. Names and notes keep the numbering of the source.

Assay in all cases: SPR, captured antibody, FcγR as analyte
In general terms: In SPR one partner is held on a chip, and binding of the other changes the refractive index at the surface.

One assay concerns the target T1, human FcγRIIa(R) (human, UniProt P12318 36-217).
T1 construct: Soluble analyte in SPR; also called FcgRIIaR; FcγRIIa type R
T1 chain: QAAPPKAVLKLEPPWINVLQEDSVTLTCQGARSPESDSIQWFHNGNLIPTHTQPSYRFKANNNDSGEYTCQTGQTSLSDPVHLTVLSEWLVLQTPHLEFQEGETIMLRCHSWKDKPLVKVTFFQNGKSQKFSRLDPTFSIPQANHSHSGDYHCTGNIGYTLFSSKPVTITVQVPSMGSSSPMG

The target in a further assay is T2, human FcγRIIIa(F) (human, UniProt P08637 17-208, limits assumed).
T2 construct: Soluble analyte in SPR; allotype F158 stood in the assay; also called FcgRIIIaF; FcγRIIIa allotype F158

For a further assay, the target named is T3, human FcγRIIb (human, UniProt P31994 43-217, limits assumed).
T3 construct: Soluble analyte in SPR; also called FcgRIIb; FcγIIB
T3 sequence: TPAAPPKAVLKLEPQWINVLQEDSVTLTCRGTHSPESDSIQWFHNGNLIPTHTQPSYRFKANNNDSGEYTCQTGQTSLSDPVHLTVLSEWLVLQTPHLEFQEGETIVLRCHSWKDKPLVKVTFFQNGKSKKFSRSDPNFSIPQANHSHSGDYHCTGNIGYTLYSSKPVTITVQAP

The next assay addresses T4, human FcγRIIa(H) (human, UniProt P12318 36-217).
T4 construct: Soluble analyte in SPR; also called FcgRIIaH; FcγRIIa type H
T4 sequence: T1 chain with R133H

T2 sequence (P08637 other isoform, or with tags, fused parts or gaps limits assumed): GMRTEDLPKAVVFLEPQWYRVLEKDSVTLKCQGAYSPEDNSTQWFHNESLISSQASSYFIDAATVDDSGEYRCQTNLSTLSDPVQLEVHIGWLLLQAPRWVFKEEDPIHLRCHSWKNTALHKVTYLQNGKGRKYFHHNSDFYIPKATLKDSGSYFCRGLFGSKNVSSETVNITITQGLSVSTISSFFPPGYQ
Procedure for human FcγRIIIa(F): (§1) Interaction between each modified antibody and Fcγ receptor prepared in the manner described above was analyzed using the BIACORE™ T100 surface plasmon resonance system (GE Healthcare), BIACORE™ T200 surface plasmon resonance system (GE Healthcare), BIACORE™ A100 surface plasmon resonance system or BIACORE™ 4000 surface plasmon resonance system. HBS-EP+(GE Healthcare) was used for the running buffer, and measurements were carried out at 25° C. The chips used were chips in which antigen peptides, Protein A (Thermo Scientific), Protein A/G (Thermo Scientific) or Protein L (ACTIGEN® protein (Alltech or BioVision) were immobilized on the Series S Sensor Chip CM5 (GE Healthcare) or Series S Sensor Chip CM4 (GE Healthcare) by amine coupling, or chips in which preliminarily biotinylated antigen peptides were allowed to interact and then immobilized on the Series S Sensor Chip SA (certified) (GE Healthcare). The target antibodies were captured on these sensor chips, Fcγ receptor diluted with the running buffer was allowed to interact, followed by measurement of the amount of bound antibody. The amounts bound were compared between antibodies. However, since the amount of Fcγ receptor bound depends on the amount of captured antibody, the values used for comparison were first corrected by dividing the amount of Fcγ receptor bound by the captured amount of each antibody. Through reaction with 10 mM glycine-HCl at pH 1.5, the sensor chips were regenerated by washing off antibody captured on the sensor chips and used repeatedly.
(§2) Binding strength was evaluated according to the following method based on the results of analyzing the interaction with each FcγR. […] That value was then further multiplied by 100, and the resulting value was used as an indicator of relative binding activity to each FcγR.
Procedure for human FcγRIIa(H): as §1, §2
Procedure for human FcγRIIa(R): as §1, §2
Procedure for human FcγRIIb: as §1, §2

B1: GpH7-B3 variant D265F/GpL16-k0 (antibody, human IgG1)
heavy: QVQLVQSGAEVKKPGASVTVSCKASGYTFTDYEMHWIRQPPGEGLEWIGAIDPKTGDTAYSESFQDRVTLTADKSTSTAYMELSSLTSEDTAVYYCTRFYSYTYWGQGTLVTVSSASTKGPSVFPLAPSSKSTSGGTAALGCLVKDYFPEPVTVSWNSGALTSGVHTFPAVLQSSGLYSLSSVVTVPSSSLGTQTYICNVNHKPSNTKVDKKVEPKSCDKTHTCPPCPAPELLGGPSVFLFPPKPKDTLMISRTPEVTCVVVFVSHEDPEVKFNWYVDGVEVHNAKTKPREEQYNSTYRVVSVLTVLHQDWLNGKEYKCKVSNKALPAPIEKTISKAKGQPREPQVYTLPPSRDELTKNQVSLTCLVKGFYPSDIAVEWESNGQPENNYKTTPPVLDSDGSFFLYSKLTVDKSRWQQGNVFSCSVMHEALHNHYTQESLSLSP
light: DIVMTQSPLSLPVTPGEPASISCQASESLVHSNRNTYLHWYLQKPGQSPQLLIYKVSNRFSGVPDRFSGSGSGTDFTLKISRVEAEDVGVYYCSQNTHVPPTFGQGTKVEIE
notes: copies: 2 + 2
Consider B1, for which, in the assay with human FcγRIIa(R), the relative binding activity was 1 % of GpH7-B3/GpL16-k0.

B2: GpH7-B3 variant P238W/GpL16-k0 (antibody, human IgG1)
heavy: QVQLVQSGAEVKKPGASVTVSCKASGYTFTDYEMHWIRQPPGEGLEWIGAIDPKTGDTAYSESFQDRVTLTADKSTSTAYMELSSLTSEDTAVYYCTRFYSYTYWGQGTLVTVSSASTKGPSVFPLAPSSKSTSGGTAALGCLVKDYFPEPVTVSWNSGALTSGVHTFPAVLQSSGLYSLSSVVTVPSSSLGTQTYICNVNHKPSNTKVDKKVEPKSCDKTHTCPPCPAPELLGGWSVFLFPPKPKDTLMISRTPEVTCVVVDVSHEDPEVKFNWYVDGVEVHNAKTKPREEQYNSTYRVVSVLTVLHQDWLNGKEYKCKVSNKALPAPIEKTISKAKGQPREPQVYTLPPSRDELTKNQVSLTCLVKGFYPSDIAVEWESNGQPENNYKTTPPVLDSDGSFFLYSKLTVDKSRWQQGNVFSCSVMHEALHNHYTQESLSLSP
light: B1 light
notes: copies: 2 + 2
Turning to B2, the relative binding activity with human FcγRIIIa(F) was 1 % of GpH7-B3/GpL16-k0.

B3: GpH7-B3 variant P238K/GpL16-k0 (antibody, human IgG1)
heavy: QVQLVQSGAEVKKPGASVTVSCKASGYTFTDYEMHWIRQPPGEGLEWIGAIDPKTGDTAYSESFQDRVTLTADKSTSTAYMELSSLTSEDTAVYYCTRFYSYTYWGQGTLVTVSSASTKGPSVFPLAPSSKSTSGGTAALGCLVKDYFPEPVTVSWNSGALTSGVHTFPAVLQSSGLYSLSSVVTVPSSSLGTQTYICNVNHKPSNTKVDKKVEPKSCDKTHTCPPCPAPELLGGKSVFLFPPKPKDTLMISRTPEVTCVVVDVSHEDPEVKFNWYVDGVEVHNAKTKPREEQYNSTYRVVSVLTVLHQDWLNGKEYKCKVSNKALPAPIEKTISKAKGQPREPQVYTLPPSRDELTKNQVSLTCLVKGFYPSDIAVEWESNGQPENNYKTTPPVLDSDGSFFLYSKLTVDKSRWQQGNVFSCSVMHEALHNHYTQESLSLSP
light: B1 light
notes: copies: 2 + 2
With B3, the relative binding activity with human FcγRIIb was 2 % of GpH7-B3/GpL16-k0; in the assay with human FcγRIIa(H), 1 % of GpH7-B3/GpL16-k0.
